# Where a chain is given by its changes, count along the chain named. In names and notes the source's numbering stands.
# B1: VLX4 IgG1 (xi) (antibody)
# heavy: not shown
# light: DVLMTQTPLSLPVNLGDQASISCRSRQSIVHTNGNTYLGWFLQKPGQSPKLLIYKVSNRFSGVPDRFSGSGSGTDFTLTISRVEAEDLGVYYCFQGSHVPYTFGGGTKLEIKRTVAAPSVFIFPPSDEQLKSGTASVVCLLNNFYPREAKVQWKVDNALQSGNSQESVTEQDSKDSTYSLSSTLTLSKADYEKHKVYACEVTHQGLSSPVTKSFNRGEC
# notes: murine-human chimera, human IgG1, human kappa
# B2: VLX4 IgG1 N297Q (xi) (antibody)
# heavy: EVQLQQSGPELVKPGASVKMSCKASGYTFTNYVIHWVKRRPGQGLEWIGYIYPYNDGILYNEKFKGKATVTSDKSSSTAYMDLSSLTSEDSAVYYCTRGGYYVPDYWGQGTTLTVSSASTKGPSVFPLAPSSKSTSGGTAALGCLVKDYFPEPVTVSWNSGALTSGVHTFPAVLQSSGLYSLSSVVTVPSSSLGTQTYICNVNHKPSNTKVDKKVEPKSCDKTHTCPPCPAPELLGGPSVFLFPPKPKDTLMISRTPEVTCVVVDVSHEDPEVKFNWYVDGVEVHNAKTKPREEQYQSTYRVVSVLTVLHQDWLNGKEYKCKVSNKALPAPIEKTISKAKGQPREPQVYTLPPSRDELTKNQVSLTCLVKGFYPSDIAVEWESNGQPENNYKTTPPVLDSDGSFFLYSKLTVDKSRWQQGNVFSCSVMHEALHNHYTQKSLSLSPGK
# light: B1 light
# notes: murine-human chimera, human IgG1-N297Q, human kappa
# B3: VLX8hum_08 IgG2 (antibody, V domains shown)
# VH: EVQLVQSGAEVKKPGESLKISCKGSGYSFTNYYIHWVRQMPGKGLEWMGYIDPLNGDTTYNQKFKGQVTISADKSISTAYLQWSSLKASDTAMYYCARGGKRAMDYWGQGTLVTVSS
# VL: DIQMTQSPSSLSASVGDRVTITCRASQSISNYLNWYQQKPGKAPKLLIYYTSRLYSGVPSRFSGSGSGTDFTLTISSLQPEDFATYYCQQGNTLPWTFGQGTKVEIKR
# B4: VLX8hum_07 IgG2 (antibody, V domains shown)
# VH: QVQLVQSGAEVKKPGSSVKVSCKASGYSFTNYYIHWVRQAPGQGLEWMGYIDPLNGDTTYNQKFKGRVTITADESTSTAYMELSSLRSEDTAVYYCARGGKRAMDYWGQGTLVTVSS
# VL: B3 VL
# B5: VLX8hum_06 IgG2 (antibody, V domains shown)
# VH: B4 VH with S16A, I70M, A72R, E74T, A79V
# VL: B3 VL
# B6: VLX8hum_09 IgG2 (antibody, V domains shown)
# VH: B4 VH with N61A, K65Q
# VL: B3 VL
# B7: VLX9 IgG2 (xi) (antibody)
# heavy: QVQLQQFGAELAKPGASVQMSCKASGYTFTNYWIHWVKQRPGQGLEWIGYTDPRTDYTEYNQKFKDKATLAADRSSSTAYMRLSSLTSEDSAVYYCAGGGRVGLGYWGHGSSVTVSSASTKGPSVFPLAPCSRSTSESTAALGCLVKDYFPEPVTVSWNSGALTSGVHTFPAVLQSSGLYSLSSVVTVPSSNFGTQTYTCNVDHKPSNTKVDKTVERKCCVECPPCPAPPVAGPSVFLFPPKPKDTLMISRTPEVTCVVVDVSHEDPEVQFNWYVDGVEVHNAKTKPREEQFNSTFRVVSVLTVVHQDWLNGKEYKCKVSNKGLPAPIEKTISKTKGQPREPQVYTLPPSREEMTKNQVSLTCLVKGFYPSDIAVEWESNGQPENNYKTTPPMLDSDGSFFLYSKLTVDKSRWQQGNVFSCSVMHEALHNHYTQKSLSLSPGK
# light: DVFMTQTPLSLPVSLGDQASISCRSSQNIVQSNGNTYLEWYLQKPGQSPKLLIYKVFHRFSGVPDRFSGSGSGTDFTLKISRVEAEDLGVYYCFQGSHVPWTFGGGTKVEIKRTVAAPSVFIFPPSDEQLKSGTASVVCLLNNFYPREAKVQWKVDNALQSGNSQESVTEQDSKDSTYSLSSTLTLSKADYEKHKVYACEVTHQGLSSPVTKSFNRGEC
# notes: murine-human chimera; also called VLX9 IgG2 chimera
# B8: VLX9 IgG1 (xi) (antibody)
# heavy: not shown
# light: B7 light
# notes: murine-human chimera
# B9: VLX9 IgG4 PE (xi) (antibody)
# heavy: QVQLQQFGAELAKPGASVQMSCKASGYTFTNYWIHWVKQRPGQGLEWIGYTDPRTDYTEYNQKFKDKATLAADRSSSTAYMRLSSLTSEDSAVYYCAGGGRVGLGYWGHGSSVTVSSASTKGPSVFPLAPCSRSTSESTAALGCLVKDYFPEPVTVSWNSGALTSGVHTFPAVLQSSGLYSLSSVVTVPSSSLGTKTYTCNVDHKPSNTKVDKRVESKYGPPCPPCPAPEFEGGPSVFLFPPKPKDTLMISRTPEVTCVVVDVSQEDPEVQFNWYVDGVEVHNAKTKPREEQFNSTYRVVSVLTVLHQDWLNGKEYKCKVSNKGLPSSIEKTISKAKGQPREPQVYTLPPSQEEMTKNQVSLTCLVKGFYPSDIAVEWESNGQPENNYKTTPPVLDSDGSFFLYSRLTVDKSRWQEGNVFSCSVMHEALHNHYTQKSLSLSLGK
# light: B7 light
# notes: murine-human chimera
# B10: VLX9 IgG1 N297Q (xi) (antibody)
# heavy: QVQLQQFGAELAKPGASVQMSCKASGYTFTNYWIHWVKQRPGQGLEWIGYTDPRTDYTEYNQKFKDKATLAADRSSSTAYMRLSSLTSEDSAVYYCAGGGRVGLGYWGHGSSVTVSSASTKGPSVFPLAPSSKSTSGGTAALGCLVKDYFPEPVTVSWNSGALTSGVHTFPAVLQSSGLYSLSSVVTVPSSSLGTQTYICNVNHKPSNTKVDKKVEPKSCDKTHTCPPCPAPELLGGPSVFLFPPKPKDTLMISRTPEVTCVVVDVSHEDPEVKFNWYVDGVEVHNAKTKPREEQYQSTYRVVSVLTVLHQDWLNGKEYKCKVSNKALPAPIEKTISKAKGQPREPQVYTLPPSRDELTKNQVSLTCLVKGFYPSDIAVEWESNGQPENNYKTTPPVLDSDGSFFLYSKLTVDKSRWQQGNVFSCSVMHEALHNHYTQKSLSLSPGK
# light: B7 light
# notes: murine-human chimera
# B11: VLX8 IgG4 PE (xi) (antibody)
# heavy: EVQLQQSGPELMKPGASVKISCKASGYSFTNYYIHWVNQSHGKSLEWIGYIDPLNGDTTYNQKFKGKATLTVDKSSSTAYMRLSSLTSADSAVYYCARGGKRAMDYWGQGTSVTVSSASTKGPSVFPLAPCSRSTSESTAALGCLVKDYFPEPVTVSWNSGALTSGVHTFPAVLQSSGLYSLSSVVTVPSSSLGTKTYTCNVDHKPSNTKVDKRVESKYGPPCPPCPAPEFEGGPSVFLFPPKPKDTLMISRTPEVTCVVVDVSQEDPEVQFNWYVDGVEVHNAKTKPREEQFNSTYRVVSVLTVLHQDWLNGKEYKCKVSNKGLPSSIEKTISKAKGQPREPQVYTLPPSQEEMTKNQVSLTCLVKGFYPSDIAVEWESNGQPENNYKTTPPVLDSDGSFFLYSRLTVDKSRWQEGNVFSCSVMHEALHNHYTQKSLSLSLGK
# light: DIQMTQTTSSLSASLGDRVTISCRASQDISNYLNWYQQKPDGTVKLLIYYTSRLYSGVPSRFSGSGSGTDYSLTISNLEQEDIATYFCQQGNTLPWTFGGGTKLEIKRTVAAPSVFIFPPSDEQLKSGTASVVCLLNNFYPREAKVQWKVDNALQSGNSQESVTEQDSKDSTYSLSSTLTLSKADYEKHKVYACEVTHQGLSSPVTKSFNRGEC
# notes: murine-human chimera; tied through the names Vx8mur-H03/Vx8murL03 full length chains, not by an explicit VLX8 statement; also called VLX8 IgG4PE chimera
# B12: VLX8 IgG1 N297Q (xi) (antibody)
# heavy: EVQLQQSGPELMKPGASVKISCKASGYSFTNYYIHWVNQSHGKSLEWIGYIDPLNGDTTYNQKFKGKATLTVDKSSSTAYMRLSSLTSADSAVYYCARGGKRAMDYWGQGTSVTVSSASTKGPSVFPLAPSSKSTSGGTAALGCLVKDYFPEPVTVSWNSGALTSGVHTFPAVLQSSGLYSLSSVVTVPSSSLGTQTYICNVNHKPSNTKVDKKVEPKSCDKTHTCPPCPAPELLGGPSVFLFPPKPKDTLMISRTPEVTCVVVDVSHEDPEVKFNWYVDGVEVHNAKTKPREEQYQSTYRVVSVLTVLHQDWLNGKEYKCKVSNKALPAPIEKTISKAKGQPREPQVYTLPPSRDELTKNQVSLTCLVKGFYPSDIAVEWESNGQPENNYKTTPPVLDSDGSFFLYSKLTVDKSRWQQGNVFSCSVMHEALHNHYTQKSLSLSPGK
# light: B11 light
# notes: murine-human chimera
# B13: VLX9 IgG (murine) (antibody, V domains shown)
# VH: QVQLQQFGAELAKPGASVQMSCKASGYTFTNYWIHWVKQRPGQGLEWIGYTDPRTDYTEYNQKFKDKATLAADRSSSTAYMRLSSLTSEDSAVYYCAGGGRVGLGYWGHGSSVTVSS
# VL: DVFMTQTPLSLPVSLGDQASISCRSSQNIVQSNGNTYLEWYLQKPGQSPKLLIYKVFHRFSGVPDRFSGSGSGTDFTLKISRVEAEDLGVYYCFQGSHVPWTFGGGTKVEIK
# notes: murine IgG; tied through the names Vx9murH04/Vx9murL04; also called murine VLX9 antibody
# Biological target: T1, human CD47 (human, UniProt Q08722 19-292)
# T1 construct: also called hCD47; CD47 on OV10 hCD47 cells, human RBCs, Jurkat cells and normal human cells
# Test: flow cytometry, human RBCs
# Protocol: (§1) Binding activities of chimeric and humanized VLX4, VLX8, and VLX9 mAbs to human CD47 on hRBCs were also determined using flow cytometry.
row,Kd,Binder
1,0.104 nM,B1
2,0.092 nM,B2
3,0.82 nM,B3
4,0.671 nM,B4
5,0.246 nM,B5
6,1.74 nM,B6
7,0.742 nM,B7
8,0.381 nM,B8
9,0.126 nM,B9
10,0.19 nM,B10
11,0.077 nM,B11
12,0.091 nM,B12

# Biological target: T1, human CD47
# Test: cell ELISA, OV10 hCD47 cells
# Protocol: OV10 hCD47 cells were grown in IMDM medium containing 10% heat inactivated fetal bovine serum (BioWest; S01520). […] Cells were washed, various concentrations of purified antibodies added in IMDM and incubated at 37° C. for 1 hr in […]. Cells were then washed with media and incubated for an additional hour at 37° C. with HRP labelled secondary anti-human antibody (Promega) diluted 1/2500 in media. Cells were washed three times with PBS, and the peroxidase substrate 3,3′, 5,5′-tetramethylbenzidine was added (Sigma; Catalog #T4444). […] The apparent binding affinities of these clones to human OV10 hCD47 cells was determined by non-linear fit (Prism GraphPad software).
row,Kd,Binder
1,0.315 nM,B1
2,0.258 nM,B2
3,0.464 nM,B3
4,0.46 nM,B4
5,0.403 nM,B5
6,0.68 nM,B6
7,0.88 nM,B7
8,0.28 nM,B8
9,0.293 nM,B9
10,0.275 nM,B10
11,0.056 nM,B11
12,0.042 nM,B12

# Biological target: T2, recombinant human His-CD47 (human, UniProt Q08722 19-139)
# T2 construct: bought reagent; also called His-tagged human CD47 (Acro Biosystems); not shown: His tag
# Test: ELISA, adsorbed His-CD47, pH 6
# Protocol: (§2) Binding by soluble anti-CD47 mAbs to immobilized recombinant human CD47 and to human CD47 expressed on cells was measured in vitro. For the in vitro binding to recombinant CD47, His-CD47 (AcroBiosystems) was adsorbed to high-binding microtiter plates overnight at 4° C. The wells were washed and varying concentrations of anti-CD47 mAbs were added to the wells in buffers with a of either pH 6 or pH 8 for 1 hour. The wells were washed and then incubated with HRP-labelled secondary antibody for 1 hour at pH 6 or pH 8 followed by addition of peroxidase substrate. The apparent affinities were calculated using non-linear fit model (Graphpad Prism).
row,Kd,Binder
1,0.091 nM,B13
2,0.13 nM,B7
3,0.133 nM,B9
4,0.099 nM,B10

# Biological target: T2, recombinant human His-CD47
# Test: ELISA, adsorbed His-CD47, pH 8
# Protocol: as §2
row,Kd,Binder
1,0.076 nM,B13
2,0.137 nM,B7
3,0.16 nM,B9
4,0.135 nM,B10

# Biological target: T1, human CD47
# Test: flow cytometry on freshly isolated human RBCs, FITC-labelled donkey anti-human antibody, MFI
# Protocol: FIG. 7. Binding of VLX9 Humanized mAbs to Human RBCs. […] RBCs were incubated for 60 minutes at 37° C. with various concentrations of VLX9 mAbs, washed and incubated for 1 hr with FITC-labelled donkey anti-human antibody. Cells were washed and antibody binding measured using flow cytometry.
# as §1
row,EC50 (read off the curve),Binder
1,~0.6 nM,B7

# Biological target: T1, human CD47
# Test: as above
# Remark: another data set of the same source
# Protocol: FIG. 4A. Binding of VLX8 Humanized mAbs to Human RBCs. […] RBCs were incubated for 1 hr at 37° C. with various concentrations of VLX8 mAbs, washed and incubated for 1 hr with FITC-labeled donkey anti-human antibody. Cells were washed and antibody binding measured using flow cytometry.
# as §1
row,EC50 (read off the curve),Binder
1,~0.2 nM,B11

# Biological target: T1, human CD47
# Test: as above
# Remark: another data set of the same source
# Protocol: FIG. 4B. Binding of VLX8 Humanized mAbs to Human RBCs. […] RBCs were incubated for 1 hr at 37° C. with various concentrations of VLX8 mAbs, washed and incubated for 1 hr with FITC-labeled donkey anti-human antibody. Cells were washed and antibody binding measured using flow cytometry.
# as §1
row,EC50 (read off the curve),Binder
1,~0.7 nM,B3
